Data set [1] deals with SavR (Staphylococcus aureus (NCTC8325?)). The data set can be described thus: ITC. As to conditions: EMSA: 20 mM Tris-HCl pH 8.0, 100 mM NaCl, 25 C, 20 min; footprinting: same plus 5 mM MgCl2, 1 mM CaCl2, 25 C 30 min; ITC: 20 mM Tris-HCl pH 8.0, 100 mM NaCl …. For orientation: In EMSA bound probe runs differently from free probe, usually more slowly.
For data set [2], the target named is SavR;SavS (Staphylococcus aureus (NCTC8325?);Staphylococcus aureus (NCTC8325?)) (UniProt Q2FVF8). In words: ITC. As to conditions: EMSA: 20 mM Tris-HCl pH 8.0, 100 mM NaCl, 25 C, 20 min; footprinting: same plus 5 mM MgCl2, 1 mM CaCl2, 25 C 30 min; ITC: 20 mM Tris-HCl pH 8.0, 100 mM NaCl ….

With “TACGCTAATTATAGCGTACGCACTTGAGTACGTCAA (double strand) [36-bp savRS operator]”, the Kd in data set [1] was 9.13 µM; in data set [2] it was 0.0267 µM.

The term Kd denotes the concentration at which binding is half-saturated.
